Source: paper PMC6426329 (Journal of immunology (Baltimore, Md. : 1950), 2018)
“Also recorded” adds a separate entry of the source.

The molecules below were run against DRB4 protein (Homo sapiens, UniProt P01903+P13762, G164S) (assay: Peptide binding competition assay). Settings: in vitro competition assay.

Row | Molecule | Binding to DRB4 (in words)
1 | PPI 12–23: truncated version of the PPI 9–28 peptide (ALLALWGPDPAA) | able to bind; also recorded: detectable binding

Each molecule was assayed against Recombinant DRB4 protein (DRA1/B4*01:01) (human) (UniProt P01903) (assay: peptide binding competition assay). Settings: not given.

Row | Molecule | IC50 [µM]
2 | GAD65 265–284 peptide | 10
3 | VAPVIKARMMEYGTTMVSYQ [GAD65 529–548 peptide] | 2.8
4 | SDLERRILEAKQKGFVPFLV [GAD65 313–332 peptide] | 22
5 | DVMNILLQYVVKSFDRSTKV [GAD65 113–132 peptide] | 1.4
6 | ATHQDIDFLIEEIERLGQDL [GAD65 566–585 peptide] | 12
7 | NTNMFTYEIAPVFVLLEYVT [GAD65 201–220 peptide] | 1.2
8 | DERGKMIPSDLERRILEAKQ [GAD65 305–324 peptide] | 29
9 | HVDVFKLWLMWRAKGTTGFE [GAD65 449–468 peptide] | 32
10 | LRTLEDNEERMSRLSKVAPV [GAD65 513–532 peptide] | 5.9
11 | ICKKYKIWMHVDAAWGGGLL [GAD65 353–372 peptide] | 0.9
12 | PGGAISNMYAMMIARFKMFP [GAD65 241–260 peptide] | 0.6
13 | IAPVFVLLEYVTLKKMREII [GAD65 209–228 peptide] | 21
14 | KVNFFRMVISNPAATHQDID [GAD65 553–572 peptide] | 7.8
